From patent US20190352359A1 (IMMATICS BIOTECHNOLOGIES, published 2019)

B1: HAS3-003 (peptide)
peptide: KFLGSKCSF
notes: also called KFLGSKCSF
B2: SLC7A11-007 (peptide)
peptide: RYILEPFFI
notes: also called RYILEPFFI
B3: TAS2R38-003 (peptide)
peptide: AFISVPLLI
notes: also called AFISVPLLI
B4: APOB-079 (peptide)
peptide: IFMENAFEL
notes: also called IFMENAFEL
B5: OR51E2-002 (peptide)
peptide: FWFDSREISF
notes: also called FWFDSREISF
B6: APOB-080 (peptide)
peptide: KYNRQSMTL
notes: also called KYNRQSMTL
B7: OTOL-001 (peptide)
peptide: NYSPVTGKF
notes: also called NYSPVTGKF
B8: TAS2R38-002 (peptide)
peptide: AAFISVPLLI
notes: also called AAFISVPLLI
B9: OR51E2-004 (peptide)
peptide: IYLLLPPVI
notes: also called IYLLLPPVI
B10: SPNS3-005 (peptide)
peptide: SFISPRYSWLF
notes: also called SFISPRYSWLF
B11: KLHL14-007 (peptide)
peptide: IYLVGGYSW
notes: also called IYLVGGYSW
B12: ADAMTS12-005 (peptide)
peptide: RFLDRGWGF
notes: also called RFLDRGWGF
B13: NLRP4-003 (peptide)
peptide: FYQPDLKYLSF
notes: also called FYQPDLKYLSF
B14: PTP-040 (peptide)
peptide: PEYSLPVLTF
notes: also called PEYSLPVLTF
B15: MMP1-009 (peptide)
peptide: FYPEVELNF
notes: also called FYPEVELNF
B16: RTL-002 (peptide)
peptide: DYIQMIPEL
notes: also called DYIQMIPEL
B17: BTBD16-003 (peptide)
peptide: TYETVMTFF
notes: also called TYETVMTFF
B18: DYRK4-001 (peptide)
peptide: VHMKDFFYF
notes: also called VHMKDFFYF
B19: GABRP-003 (peptide)
peptide: KMGRIVDYF
notes: also called KMGRIVDYF
B20: SCN3A-001 (peptide)
peptide: AYVTEFVSL
notes: also called AYVTEFVSL
B21: PASD-001 (peptide)
peptide: EVYQKIILKF
notes: also called EVYQKIILKF
B22: LPAR3-001 (peptide)
peptide: IFMGAVPTL
notes: also called IFMGAVPTL
B23: GPR126-002 (peptide)
peptide: KWKPSPLLF
notes: also called KWKPSPLLF
B24: KLB-003 (peptide)
peptide: VYTVGHNLI
notes: also called VYTVGHNLI
B25: SOX30-001 (peptide)
peptide: YFLPGPHYF
notes: also called YFLPGPHYF
B26: OR51B5-001 (peptide)
peptide: IQNAILHLF
notes: also called IQNAILHLF
B27: MROH2A-005 (peptide)
peptide: VYDYIPLLL
notes: also called VYDYIPLLL

target: T1, HLA-A*24; assay: UV peptide-exchange ELISA (anti-b2m); yield grade ++++ = >75%
T1 construct: Monomers captured on streptavidin plates; also called peptide-receptive MHC molecules; MHC complexes
Text: Candidate peptides for T cell based therapies according to the present invention were further tested for their MHC binding capacity (affinity). The individual peptide-MHC complexes were produced by UV-ligand exchange, where a UV-sensitive peptide is cleaved upon UV-irradiation, and exchanged with the peptide of interest as analyzed. Only peptide candidates that can effectively bind and stabilize the peptide-receptive MHC molecules prevent dissociation of the MHC complexes. To determine the yield of the exchange reaction, an ELISA was performed based on the detection of the light chain (p2m) of stabilized MHC complexes. The assay was performed as generally described in Rodenko et al. (Rodenko et al., 2006)
96 well MAXISorp plates (NUNC) were coated over night with 2 ug/ml streptavidin in PBS at room temperature, washed 4× and blocked for 1 h at 37° C. in 2% BSA containing blocking buffer. Refolded HLA-A*02:01/MLA-001 monomers served as standards, covering the range of 15-500 ng/ml. Peptide-MHC monomers of the UV-exchange reaction were diluted 100-fold in blocking buffer. Samples were incubated for 1 h at 37° C., washed four times, incubated with 2 ug/ml HRP conjugated anti-β2m for 1h at 37° C., washed again and detected with TMB solution that is stopped with […]. Absorption was measured at 450 nm. Candidate peptides that show a high exchange yield (preferably higher than 50%, most preferred higher than 75%) are generally preferred for a generation and production of antibodies or fragments thereof, and/or T cell receptors or fragments thereof, as they show sufficient avidity to the MHC molecules and prevent dissociation of the MHC complexes.

Peptide exchange yield, > 75%:
B1
B2
B3
B4
B5
B6
B7
B8
B9
B10
B11
B12
B13
B14
B15
B16
B17
B18
B19
B20
B21
B22
B23
B24
B25
B26
B27
